Source: US20260242478A1 (published 2026)
Where no end group is shown, it is not given here.

B1: Phage-1967 (peptide)
peptide: DVKMCIPAWMCSFD
notes: tested as crude clonal phage supernatant
B2: Phage-1966 (peptide)
peptide: WDKWCRPAWMCEST
notes: as for B1
B3: Phage-1953 (peptide)
peptide: PVKWCIPTWMCAPV
modifications: cysteine pairing not given here; also: fused to phage pIII (clonal phage display)

The binders below were run against T1, Anti-PSMA Fab (SEQ ID NOs: 19, 20) (assay: phage binding ELISA; clonal phage supernatant on biotinylated PSMA Fab captured on neutravidin plate; anti-M13-HRP detection).
T1 construct: also called 006 PSMA Fab
Procedure: (§1) Clonal phage were harvested as crude supernatants and screened via standard ELISAs. […] Prior to the addition of clonal phage. wells were incubated with blocking buffer and PSMA antigen or blocking buffer alone. Without washing or aspirating, clonal phage supernatants were then added to the wells and incubated for a short time. Wells were then washed followed by detection of bound phage using a horse radish conjugated anti-M13 antibody.

| Binder | Anti-PSMA Fab (SEQ ID NOs: 19, 20) signal |
| --- | --- |
| ARRSCVFRRGCVFM [Phage-1950] | 1.93 |
| GEKWCIPEWMCTTW [Phage-1941] | 1.95 |
| MDNWCTPSWMCVGF [Phage-1948] | 1.93 |
| LEKWCIPTWMCELF [Phage-1943] | 1.94 |
| WENWCTPRWMCEGF [Phage-1945] | 1.94 |
| WENWCRPEWMCTGL [Phage-1940] | 1.95 |
| DGKWCIPPWMCQST [Phage-1944] | 1.94 |
| VEKLCRPSWMCEHM [Phage-1939] | 1.96 |
| TEMWCKPSWMCYGF [Phage-1946] | 1.94 |
| WINWCTPEWMCMGF [Phage-1947] | 1.94 |
| MEKWCIPSWMCDVN [Phage-1938] | 1.96 |
| DIKLCMPEWMCLGF [Phage-1949] | 1.93 |
| VEKWCVPQWMCGQM [Phage-1942] | 1.95 |

Each binder was assayed against T2, Anti-PSMA Fab (SEQ ID NOs: 19, 20) (assay: phage binding ELISA on captured PSMA Fab; wells pre-incubated with PSMA antigen as competitor).
T2 construct: Biotinylated and captured on neutravidin coated plates in the phage ELISA; also called 006 PSMA Fab
Procedure: as §1

| Binder | Anti-PSMA Fab signal in the presence of PSMA |
| --- | --- |
| B1 | 0.0712 |
| B2 | 0.0851 |

What follows are binders tested against T3, Anti-PSMA Fab (SEQ ID NOs: 19, 20) (assay: phage binding ELISA; PSMA Fab on plate pre-incubated with PSMA antigen as competitor, anti-M13 HRP detection;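 note: crude clonal phage supernatants added without washing to wells preincubated with PSMA in blocking buffer, compared with wells receiving blocking buffer only, then bound phage detected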).
T3 construct: Biotinylated and captured on neutravidin coated plates in the phage ELISA; also called 006 PSMA Fab
Procedure: as §1

| Binder | Phage binding ELISA, Anti-PSMA Fab signal in the presence of PSMA |
| --- | --- |
| VVKWCLPPWMCTDF [Phage-1962] | 0.0829 |
| FAKWCTPVWMCAGL (cysteine pairing not given here; also: displayed as fusion to phage pIII) [Phage-1956] | 0.281 |
| LEMWCVPAWMCSGF [Phage-1964] | 0.0771 |
| AEHWCIPSWMCAGF (cysteine pairing not given here; also: displayed as fusion to phage pIII) [Phage-1951] | 0.104 |
| MPKWCTPAWMCAHQ (cysteine pairing not given here; also: displayed as fusion to phage pIII) [Phage-1952] | 0.0835 |
| FEKWCIPDWMCQVM [Phage-1960] | 0.0817 |
| LENWCIPAWMCSGF [Phage-1957] | 0.0656 |
| WDKWCIPEWMCESM [Phage-1959] | 0.0718 |
| MVKWCKPAWMCDVI [Phage-1965] | 0.078 |
| HEKWCIPEWMCVVT [Phage-1954] | 0.0642 |
| LVKWCTPAWMCEFI [Phage-1963] | 0.0856 |
| GEIWCIPPWMCYAP [Phage-1955] | 0.0825 |
| B3 | 0.0978 |
| EGIWCTPAWMCMGF [Phage-1961] | 0.0798 |
| DGKWCIPAWMCVDM [Phage-1958] | 0.0672 |

Each binder was assayed against T2, Anti-PSMA Fab (SEQ ID NOs: 19, 20) (assay: phage binding ELISA; biotinylated PSMA Fab captured on neutravidin plate, clonal phage supernatant, anti-M13 HRP detection).
Procedure: as §1

| Binder | Anti-PSMA Fab (SEQ ID NOs: 19, 20) signal |
| --- | --- |
| B1 | 1.91 |
| B2 | 1.91 |

What follows are binders tested against T3, Anti-PSMA Fab (SEQ ID NOs: 19, 20) (assay: phage binding ELISA; biotinylated PSMA Fab on neutravidin plate, clonal phage supernatant, anti-M13 HRP detection;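 note: wells were preincubated with blocking buffer either containing PSMA antigen or without it before crude phage supernatant was added, briefly incubated, then washed prior to detection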).
Procedure: as §1

| Binder | Phage binding ELISA, Anti-PSMA Fab (SEQ ID NOs: 19, 20) signal |
| --- | --- |
| VVKWCLPPWMCTDF [Phage-1962] | 1.91 |
| FAKWCTPVWMCAGL (cysteine pairing not given here; also: displayed as fusion to phage pIII) [Phage-1956] | 1.92 |
| LEMWCVPAWMCSGF [Phage-1964] | 1.91 |
| AEHWCIPSWMCAGF (cysteine pairing not given here; also: displayed as fusion to phage pIII) [Phage-1951] | 1.93 |
| MPKWCTPAWMCAHQ (cysteine pairing not given here; also: displayed as fusion to phage pIII) [Phage-1952] | 1.93 |
| FEKWCIPDWMCQVM [Phage-1960] | 1.91 |
| LENWCIPAWMCSGF [Phage-1957] | 1.92 |
| WDKWCIPEWMCESM [Phage-1959] | 1.92 |
| MVKWCKPAWMCDVI [Phage-1965] | 1.91 |
| HEKWCIPEWMCVVT [Phage-1954] | 1.92 |
| LVKWCTPAWMCEFI [Phage-1963] | 1.91 |
| GEIWCIPPWMCYAP [Phage-1955] | 1.92 |
| B3 | 1.92 |
| EGIWCTPAWMCMGF [Phage-1961] | 1.91 |
| DGKWCIPAWMCVDM [Phage-1958] | 1.92 |

These binders were tested against T1, Anti-PSMA Fab (SEQ ID NOs: 19, 20) (assay: phage binding ELISA; clonal phage supernatant on biotinylated PSMA Fab captured on neutravidin plate, wells pre-incubated with PSMA antigen (competitor: PSMA); anti-M13-HRP detection).
Procedure: as §1

| Binder | Anti-PSMA Fab signal in the presence of PSMA |
| --- | --- |
| ARRSCVFRRGCVFM [Phage-1950] | 0.0701 |
| GEKWCIPEWMCTTW [Phage-1941] | 0.135 |
| MDNWCTPSWMCVGF [Phage-1948] | 0.0794 |
| LEKWCIPTWMCELF [Phage-1943] | 0.175 |
| WENWCTPRWMCEGF [Phage-1945] | 0.173 |
| WENWCRPEWMCTGL [Phage-1940] | 0.0907 |
| DGKWCIPPWMCQST [Phage-1944] | 0.077 |
| VEKLCRPSWMCEHM [Phage-1939] | 0.0564 |
| TEMWCKPSWMCYGF [Phage-1946] | 0.101 |
| WINWCTPEWMCMGF [Phage-1947] | 0.24 |
| MEKWCIPSWMCDVN [Phage-1938] | 0.0785 |
| DIKLCMPEWMCLGF [Phage-1949] | 0.0792 |
| VEKWCVPQWMCGQM [Phage-1942] | 0.0869 |
